Source: patent US20260176336A1

Biological target: human LTBR endogenously expressed on cells (HepG2, A549, A375, HCC1187, RPMI-7951, primary human breast CAFs) (human) (UniProt P36941)
Assay: cell-based or functional assay

Chain of human LTBR endogenously expressed on cells (HepG2, A549, A375, HCC1187, RPMI-7951, primary human breast CAFs) (human) (P36941 31-435): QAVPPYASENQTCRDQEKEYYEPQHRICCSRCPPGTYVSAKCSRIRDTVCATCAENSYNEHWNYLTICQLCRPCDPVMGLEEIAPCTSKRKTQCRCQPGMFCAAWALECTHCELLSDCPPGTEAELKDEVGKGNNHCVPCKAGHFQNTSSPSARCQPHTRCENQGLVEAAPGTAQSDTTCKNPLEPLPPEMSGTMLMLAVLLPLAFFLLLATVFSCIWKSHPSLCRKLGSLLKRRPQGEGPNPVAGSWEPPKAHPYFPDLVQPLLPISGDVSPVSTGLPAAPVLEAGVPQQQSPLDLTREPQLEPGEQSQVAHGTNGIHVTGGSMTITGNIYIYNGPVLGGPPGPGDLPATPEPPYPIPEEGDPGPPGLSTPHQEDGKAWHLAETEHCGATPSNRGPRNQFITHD

- CCL19 upregulation, HCC1187:CAF Co-culture EC50: 260 pM
- CCL19 upregulation, HCC1187 Monoculture EC50: 230 pM
- HCC1187 monoculture assay CCL19 read-out EC50: 239 pM
- HCC-1187:RPMI7951 (cis-activation) co-culture assay CCL5 read-out EC50: 130 pM
- HCC-1187:RPMI7951 (trans-activation) co-culture assay, CCL19 Read-out EC50: 84 pM
- HepG2 Reporter assay, HepG2:FAP-CHO-K1 Co-culture EC50: 46 pM
- HepG2 Reporter assay, HepG2 Monoculture EC50: 33 pM
- ICAM1 upregulation in CAFs monoculture assay EC50: 44 pM
- chemokine (CCL5) induction in RPMI-7951 EC50: 380 pM
B1: CBE-11 (antibody, from another filing, human IgG1, V domains shown)
VH: EVQLVESGGGLVKPGGSLRLSCAASGFTFSDYYMYWFRQAPGKGLEWVATISDGGSYTYYPDSVKGRFTISRDNAKNSLYLQMSSLRAEDTAVYYCAREENGNFYYFDYWGQGTTVTVSS
VL: DIQMTQSPSSLSASVGDRVTITCKAGQDIKSYLSWYQQKPGKAPKLLIYYATRLADGVPSRFSGSGSGTDYTLTISSLQPEDFATYYCLQHGESPWTFGGGTKLEIKR
